Reference: US20060110789

Tests used:
[1] = molecular target: diketide-ACP4(Ø) (DEBS ACP4 without linker, loaded with diketide) (UniProt Q03132)
[2] = molecular target: diketide-ACP2(4) (DEBS ACP2 with the C-terminal linker of module 4, loaded with diketide) (UniProt Q03131)
[3] = molecular target: diketide-ACP2(2) (DEBS ACP2 with its natural C-terminal linker, loaded with diketide) (UniProt Q03131)
[4] = molecular target: diketide-ACP4(4) (DEBS ACP4 with its natural C-terminal linker, loaded with diketide) (UniProt Q03132)
DEBS-2 = DEBS-2 (UniProt Q03132)

Substance: (5)M6+TE (module 6 of DEBS with the N-terminal linker of module 5, with thioesterase)
- kcat/KM, fold decrease against diketide-ACP4(4) with the same module [1]: the kcat/KM values drop approximately 70-300 fold

Substance: (5)M5+TE (module 5 of DEBS with its own N-terminal linker, fused to thioesterase)
- kcat/KM (FIG. 29 A) [1]: 68.3 M⁻¹ s⁻¹
- kcat/KM, fold decrease against the matched reaction (FIG. 28 C) [2]: fell approximately 20-fold and 150-fold, respectively
- triketide lactone formation at 20 µM substrate (FIG. 28 C) [2]: transfer of diketide from the donor ACP to the acceptor module occurred at 20 µM substrate concentration
- triketide lactone formation at 20 µM substrate (FIG. 28 D) [3]: no product was detected at the same substrate concentrations
- conversion of acyl-ACP into triketide lactone in 1 h (20 µM 4, 1 µM (5)M5+TE) [4]: 70% of the acyl-ACP was converted into triketide lactone in 1 h
- elongation rate constant (kcat) with 4b, fold increase against the NAC thioester 2b [4]: the elongation rate constant (kcat) increases at least 25-fold
- k60 µM (printed there as kcat/KM) [4]: kcat/KM values of 1.4 min-1 and 9.3 min^-1
- kcat/KM [4]: kcat/KM values of 390 min^-1 mM^-1 and 290 min^-1mM^-1
- triketide lactone formation at 20 µM substrate (FIG. 28 A) [4]: transfer of diketide from the donor ACP to the acceptor module occurred at 20 µM substrate concentration

Substance: ery M1-RAL rifM5+ERL
- 6-dEB production on co-transformation in S. coelicolor (with DEBS-3) (DEBS-2): Yes (dEB6)

Substance: (3)M5+TE (module 5 of DEBS with the N-terminal linker of module 3, fused to thioesterase)
- kcat/KM (FIG. 29 B) [1]: 41.7 M⁻¹ s⁻¹
- kcat/KM, fold decrease against the matched reaction (FIG. 28 B) [4]: fell approximately 20-fold and 150-fold, respectively
- triketide lactone formation at 20 µM substrate (FIG. 28 B) [4]: transfer of diketide from the donor ACP to the acceptor module occurred at 20 µM substrate concentration
